The values that follow come from publication PMC12188319.

In this experiment the target is FcγRIIIa (UniProt P08637). The experiment can be described thus: SPR. For orientation: SPR reads the build-up and loss of mass on a sensor chip optically.
Chain of UniProt P08637 (P08637 17-254): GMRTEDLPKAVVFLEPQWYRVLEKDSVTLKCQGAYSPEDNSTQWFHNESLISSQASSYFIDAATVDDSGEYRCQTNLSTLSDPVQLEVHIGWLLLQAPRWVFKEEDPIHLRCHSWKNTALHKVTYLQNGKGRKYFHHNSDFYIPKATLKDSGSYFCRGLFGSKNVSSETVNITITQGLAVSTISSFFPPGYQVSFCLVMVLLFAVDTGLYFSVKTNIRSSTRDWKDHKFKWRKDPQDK

JSKN003 (bispecific antibody) registered a Kd of 0.15 µM. In other words, the sub-micromolar range.

In general, Kd refers to the free concentration of one partner at which half of the binding sites on the other are occupied at equilibrium, for simple one-to-one binding. A high value points to weaker binding.
